{
  "source": "patent US20190100600A1",
  "about": "(BIONOMICS, published 2019)",
  "binders": {"B1": {"name": "human R-spondin 3 (ligand, UniProt Q9BXY4 22-272, looked up)", "chain": "QNASRGRRQRRMHPNVSQGCQGGCATCSDYNGCLSCKPRLFFALERIGMKQIGVCLSSCPSGYYGTRYPDINKCTKCKADCDTCFNKNFCTKCKSGFYLHLGKCLDNCPEGLEANNHTMECVSIVHCEVSEWNPWSPCTKKGKTCGFKRGTETRVREIIQHPSAKGNLCPPTNETRKCTVQRKKCQKGERGKKGRERKRKKPNKGESKEAIPDSKSLESSKEIPEQRENKQQQKKRKVQDKQKSVSVSTVH", "notes": "mature; Bought; printed as 'full length constructs expressed in mammalian cells'; also called RSPO3; R-spo3"}, "B2": {"name": "human R-spondin 1 (ligand, UniProt Q2MKA7 21-263, looked up)", "chain": "SRGIKGKRQRRISAEGSQACAKGCELCSEVNGCLKCSPKLFILLERNDIRQVGVCLPSCPPGYFDARNPDMNKCIKCKIEHCEACFSHNFCTKCKEGLYLHKGRCYPACPEGSSAANGTMECSSPAQCEMSEWSPWGPCSKKQQLCGFRRGSEERTRRVLHAPVGDHAACSDTKETRRCTVRRVPCPEGQKRRKGGQGRRENANRNLARKESKEAGAGSRRRKGQQQQQQQGTVGPLTSAGPA", "notes": "mature; Bought; printed as 'full length constructs expressed in mammalian cells'; also called RSPO1; R-spo1"}, "B3": {"name": "human R-spondin 4 (ligand, UniProt Q2I0M5 20-234, looked up)", "chain": "LNRRKKQVGTGLGGNCTGCIICSEENGCSTCQQRLFLFIRREGIRQYGKCLHDCPPGYFGIRGQEVNRCKKCGATCESCFSQDFCIRCKRQFYLYKGKCLPTCPPGTLAHQNTRECQGECELGPWGGWSPCTHNGKTCGSAWGLESRVREAGRAGHEEAATCQVLSESRKCPIQRPCPGERSPGQKKGRKDRRPRKDRKLDRRLDVRPRQPGLQP", "notes": "mature; Bought; printed as 'full length constructs expressed in mammalian cells'; also called RSPO4; R-spo4"}, "B4": {"name": "human R-spondin 2 (ligand, UniProt Q6UXX9 22-243, looked up)", "chain": "QGNRWRRSKRASYVSNPICKGCLSCSKDNGCSRCQQKLFFFLRREGMRQYGECLHSCPSGYYGHRAPDMNRCARCRIENCDSCFSKDFCTKCKVGFYLHRGRCFDECPDGFAPLEETMECVEGCEVGHWSEWGTCSRNNRTCGFKWGLETRTRQIVKKPVKDTILCPTIAESRRCKMTMRHCPGGKRTPKAKEKRNKKKKRKLIERAQEQHSVFLATDRANQ", "notes": "mature; Bought; printed as 'full length constructs expressed in mammalian cells'; also called RSPO2; R-spo2"}},
  "key": {"[1]": {"target": "T1, purified recombinant LGR5 ectodomain-IgG-Fc fusion (human, UniProt O75473 22-561)", "T1 construct": "also called human LGR5-Fc; hLGR5-Fc; not shown: IgG Fc", "T1 sequence": "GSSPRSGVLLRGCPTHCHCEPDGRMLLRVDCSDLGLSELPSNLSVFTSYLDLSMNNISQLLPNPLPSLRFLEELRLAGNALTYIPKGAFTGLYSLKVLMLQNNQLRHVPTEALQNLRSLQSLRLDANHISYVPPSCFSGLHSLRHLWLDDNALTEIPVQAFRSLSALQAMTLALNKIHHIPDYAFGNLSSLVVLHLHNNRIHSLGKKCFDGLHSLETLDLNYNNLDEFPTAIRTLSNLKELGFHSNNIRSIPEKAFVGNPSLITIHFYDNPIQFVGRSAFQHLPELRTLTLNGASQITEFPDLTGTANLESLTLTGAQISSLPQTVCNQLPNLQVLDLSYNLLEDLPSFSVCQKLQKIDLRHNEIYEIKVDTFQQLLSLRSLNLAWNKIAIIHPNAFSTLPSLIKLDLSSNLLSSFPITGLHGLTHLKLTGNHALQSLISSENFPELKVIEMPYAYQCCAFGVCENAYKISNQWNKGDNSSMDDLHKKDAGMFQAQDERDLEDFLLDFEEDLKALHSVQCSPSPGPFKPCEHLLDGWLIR", "assay": "ELISA of the ternary complex: R-spondin 3 preincubated with LGR5-Fc, co-receptor-Fc coated"}, "[2]": {"target": "T1, purified recombinant LGR5 …", "assay": "ELISA of the ternary complex: R-spondin 1 preincubated with LGR5-Fc, co-receptor-Fc coated", "description": "(§1) RNF43-Fc, ZNRF3-Fc, and LRP6-Fc were coated on a 96-well high binding plate at 4 μg/mL in 1×PBS. The plate was incubated overnight at 4° C. and blocked with PBS+1% BSA. […] Triplicate wells were used for each condition was tested in triplicate. […] 1:10,000 dilution of anti-mouse IgG HRP (JIR) was used for detection. […] Data analysis was done using GraphPad Prism 6 program."}, "[3]": {"target": "T1, purified recombinant LGR5 …", "assay": "ELISA of the ternary complex: R-spondin 4 preincubated with LGR5-Fc, co-receptor-Fc coated", "description": "as §1"}, "[4]": {"target": "T1, purified recombinant LGR5 …", "assay": "ELISA of the ternary complex: R-spondin 2 preincubated with LGR5-Fc, co-receptor-Fc coated", "description": "as §1"}},
  "data": [
    {"binder": "B1", "values": [
      {"measurement": "binding result", "setting": "[1]", "result": "binds"}
    ]},
    {"binder": "B2", "values": [
      {"measurement": "binding result", "setting": "[2]", "result": "binds"}
    ]},
    {"binder": "B3", "values": [
      {"measurement": "binding result", "setting": "[3]", "result": "binds"}
    ]},
    {"binder": "B4", "values": [
      {"measurement": "binding result", "setting": "[4]", "result": "binds"}
    ]}
  ]
}
